Test results from doi:10.1101/2025.05.23.654710.

Assays:
Assay in all cases: EMSA
[1] = target: T1, Msn2 DBD (Saccharomyces cerevisiae, UniProt P33748)
T1 sequence: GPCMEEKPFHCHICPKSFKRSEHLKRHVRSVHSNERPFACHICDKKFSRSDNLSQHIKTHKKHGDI

[2] = target: T2, Msn2 WT (Saccharomyces cerevisiae, UniProt P33748)
T2 sequence: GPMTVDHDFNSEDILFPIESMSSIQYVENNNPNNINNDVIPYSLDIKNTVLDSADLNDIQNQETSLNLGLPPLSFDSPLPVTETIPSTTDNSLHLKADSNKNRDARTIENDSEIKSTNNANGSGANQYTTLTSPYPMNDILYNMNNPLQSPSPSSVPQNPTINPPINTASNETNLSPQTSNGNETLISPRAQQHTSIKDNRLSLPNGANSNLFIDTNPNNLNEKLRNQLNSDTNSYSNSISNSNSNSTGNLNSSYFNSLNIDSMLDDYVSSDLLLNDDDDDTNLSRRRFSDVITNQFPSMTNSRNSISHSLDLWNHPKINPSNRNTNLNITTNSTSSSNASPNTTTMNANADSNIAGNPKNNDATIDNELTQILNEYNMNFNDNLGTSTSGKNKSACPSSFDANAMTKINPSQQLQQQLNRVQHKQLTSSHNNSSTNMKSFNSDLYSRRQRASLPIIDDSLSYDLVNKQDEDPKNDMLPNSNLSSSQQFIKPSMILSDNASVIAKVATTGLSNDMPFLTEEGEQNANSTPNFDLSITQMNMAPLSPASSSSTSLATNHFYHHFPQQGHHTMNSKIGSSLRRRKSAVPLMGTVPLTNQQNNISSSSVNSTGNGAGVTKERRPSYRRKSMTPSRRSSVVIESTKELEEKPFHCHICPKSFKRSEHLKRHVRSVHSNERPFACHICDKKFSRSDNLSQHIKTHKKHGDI

[3] = target: T3, Msn2 IDR (Saccharomyces cerevisiae, UniProt P33748)
T3 sequence: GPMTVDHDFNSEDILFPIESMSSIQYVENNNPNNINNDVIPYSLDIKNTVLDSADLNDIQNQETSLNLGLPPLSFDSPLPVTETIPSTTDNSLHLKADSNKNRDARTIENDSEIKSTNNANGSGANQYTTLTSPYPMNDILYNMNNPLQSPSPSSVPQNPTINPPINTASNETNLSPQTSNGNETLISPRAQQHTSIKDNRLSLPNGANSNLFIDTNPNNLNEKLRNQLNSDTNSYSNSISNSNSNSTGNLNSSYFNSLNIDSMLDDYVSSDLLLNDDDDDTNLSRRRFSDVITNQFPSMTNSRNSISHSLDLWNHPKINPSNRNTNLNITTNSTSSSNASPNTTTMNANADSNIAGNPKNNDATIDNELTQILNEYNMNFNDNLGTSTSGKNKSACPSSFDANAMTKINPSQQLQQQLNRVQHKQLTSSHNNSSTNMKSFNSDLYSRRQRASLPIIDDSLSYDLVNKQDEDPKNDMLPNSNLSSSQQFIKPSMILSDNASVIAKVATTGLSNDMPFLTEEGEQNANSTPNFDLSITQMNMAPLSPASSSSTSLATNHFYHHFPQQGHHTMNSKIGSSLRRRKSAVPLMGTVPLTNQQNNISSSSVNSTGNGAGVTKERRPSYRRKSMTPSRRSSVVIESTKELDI

Measured: binding result

B1: 51 bp DNA with motif (dsDNA)
DNA 1: CGAAATTATATGGATGAGTAGGTGGGGAAGGAAGTATGTGTAGGTGGCAGG
DNA 2: CCTGCCACCTACACATACTTCCTTCCCCACCTACTCATCCATATAATTTCG
binds: [1] | [2] | [3]
